Consider one molecule from patent US20030228654A1, “Method for producing antimicrobial protein and fusion protein” (KABUSHIKI KAISHA TOYOTA CHUO KENKYUSHO, priority 2000, published 2003).

For the experiment, the system named is Ceratocystis fimbriata. Put plainly: Assay of antimicrobial activity: growth inhibition of Ceratocystis fimbriata spore suspension in 96-well microplate, absorbance at 415 nm. As to conditions: Factor Xa-cleaved, concentrated protein solution 30 μl per well; MES buffer pH 6; 26° C.; absorbance 415 nm, 48 hours vs 30 minutes. It counts as cell-based. The procedure: As shown in SEQ ID No: 1, 2 or 4, the fusion proteins of Examples 1 and 2 and Comparative Example 2 thus dialyzed retained the recognition sequence of a protease Factor Xa in between thionin and the partner protein. Then, the fusion protein was subjected to cleavage with Factor Xa of 30 μg per 1 mg of each fusion protein described above at 30° C. overnight.
The protein solution recovered by the cleavage procedures was concentrated to 30 μl using Microcon-3 (MWCO: 3000) as a concentration unit with a filtration membrane. Such great number of concentrated sample solutions were divided at 30 μl each in the individual wells of a 96-well microplate, followed by addition of 10 μl of 200 mM MES [2-(N-morpholino)ethanesulfonic acid] buffer at pH 6 and 60 μL of a spore suspension of Ceratocystis fimbriata (100,000 spores per 1 ml-80% potato dextrose broth). Then, the resulting mixtures were cultured at 26° C. […]
Then, the absorbance 30 minutes and 48 hours later was measured at 415 nm with a microplate reader of Model 3550. The growth inhibition was determined by the following formula (1). Herein, A represents the value obtained by subtracting the absorbance measured 30 minutes later from that measured 48 hours later in each concentrated sample solution, and B represents the same value in a solution not containing the sample. […]

B1: Example 2: Fusion protein of barley thionin and PDI from Fumicola insolens (SEQ ID No: 2); refolded, cleaved with Factor Xa (protein)
chain: EKHMIEGRMKSCCRSTLGRNCYNLCRVRGAQKLCAGVCRCKLTSSGKCPTGFPKMIEGRTLALVSNSDEPDTVKYCNLGCRASMCDYMVNAAADDEEMKLYLENCGDACVNFCNGDAGLTSLTA
modifications: Hordeum vulgare
As for B1, the “Growth inhibition (%)” value was found to be 99.1%.
